Laboratory results published in the supplement of paper PMC9170038.

Test system: K4 kissing-loop RNA reporter
Experiment: apparent KD of K4 kissing-loop reporter; higher = weaker reporter binding
Details: Eterna round: R107
Method: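 RNA-MaP round R107: designed RNA switches with theophylline, tryptophan, arginine or FMN aptamers are transcribed on-chip within common flanks. They are titrated with a labelled K4 kissing-loop RNA reporter in RNA-MaP buffer (100 mM Tris pH 7.5, 80 mM KCl, 4 mM MgCl2), without ligand or with the indicated ligand. Median apparent KD per design.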

[1] = input ligand: theophylline 20 uM
[2] = input ligand: tryptophan 2.4 mM
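Also: bound reporter read as fluorescence of individual clusters on recovered sequencing chips by microscopy, with normalized cluster intensities fitted with a binding model.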

Sequence | apparent KD of K4 kissing-loop reporter (input ligand: FMN 200 uM) [nM] | apparent KD of K4 kissing-loop reporter (input ligand: arginine 13.2 mM) [nM] | apparent KD of K4 kissing-loop reporter (input ligand: none) [nM] | apparent KD of K4 kissing-loop reporter [1] [nM] | apparent KD of K4 kissing-loop reporter [2] [nM]
AAUGUAUGGCACAUGAGUGAUGUUCAUGUCCGAGGACCGGUACGGCCGCCACUCGGUCCUGGGUUCUUAUUACUAUACAUUAAUG [KL-XTryp-A2 #analogue] | 161 | 133 | 149 | 169 | 289
AAUGUAUUCCACAUGAGUGAUGUUCAUGUGCGAGGACCGGUACGGCCGCCACUCGCAGUUGUGAUCAGUUCUGAAUACAUUAAUG [KL-XTryp-A3] | 229 | 225 | 219 | 235 | 331
AAUGUGCAGGGAAGGAGCGUAGUCCAGUGCUGUUGGAGUUAGAUACCAGUGAUGUUGGUUAUACAGGUAGGUCGCCCUAAAGCGC [whbob_Ex_Arginine_B_2th161] | 139 | 154 | 140 | 161 | 130
AAUUAAUGUAUAGAUUAUAUACAUUAAUCAGAGGAUAUGCAUUGUUGCAGAAGGCUGAAUGCAGUGAUGUUGCAAUGGAAAUUUA [JR_SSFMNA_Sub004] | 53.8 | 201 | 181 | 376 | 120
AAUUGGGACGAAGGAUAUUGUCGGCCAUGUACGAGGUCCGGAUGUCAUGACUGUUAGUGAUGUUAACAAGAAGGUCGAGGGAGAC [theeternabot_exclusion_KL_FMN_B_25] | 87 | 107 | 103 | 119 | 86.3
AAUUUACAAUAAUCAUUUAAAGGAUCAGAAGGAGCGUGAAAUAACACAGGUAGGUCGCUGAGCGAGUGAUGUUCGCUAUAUACAA [JR_ExcArginiA_Sub001] | 52.3 | 68.7 | 68.8 | 85.9 | 50.1
ACACUUUACGUAGGAUAUGCGACGAGUGAUGUUCGUCAGGCGGCUUUAGCUUAAUCAGGCCGCCUAGCAGAAGGACGGGCAGUGU [Zaretiesre] | 142 | 149 | 199 | 195 | 181
ACAGCGAGCAUUAACGCGCUCGCAGGUUGCAAGGAUAUAUUUCGUCAUAGAAGGUGCUAGACCAUAAGUGAUGUUUGUGGAUAUA [theeternabot_sameState_KL_FMN_A_16] | 576 | 396 | 503 | 448 | 525
ACAGGAUCGAAAGAUCCUGAGCAGUCAAACCGAGGACCGGUACGGCCGCCACUCGGAGUGAUGUUCCGAAGACUGCAAAAUAAAA [#SwitchBubble 1] | 539 | 707 | 1120 | 406 | 334
ACCCAAGCCCAUCGCGCAGUGAUGUUGUCGCGAGGACCGGUACGGCCGCCACUCGAUAGCAGUGGCAACGUCAUCAUAAUCGAUU [theeternabot_exclusion_KL_Trp_A_50] | 340 | 310 | 352 | 299 | 563
ACCUACGAUCACAAUAGUGAUUGUAGGAACUAGGAUAUGCUGAAAAGCAGAAGGAGUGAUGUUCCAACUCAUGAAUAACAUGAGA [FmnAX 2 #OpenEnded #K4Late] | 536 | 252 | 249 | 274 | 198
ACGUAGUUCUAGGAUACCAGCCAAGGCGCAGGACAAAAGUCCUGCGUCGCCAGUGAUGUUGGCCCUUGGCAGCCUAGAACUACGA [Omei KL Theo B Exc B v12] | 334 | 302 | 304 | 364 | 308
ACGUCUUGUAAACUCGUGGUUUCGAUCGAUACCAGUAGCGAGAGUUACCCUUGGCAGCGACAUGAGUGAUGUUCAUGUACGAAGA [KL-XTheoA3] | 98.6 | 87.9 | 92.9 | 89 | 90.7
ACGUGCACCAGUGAUGUUGGAAAAUAUGAAGGAGCGGGUGAAAACCCAGGUAGGUCGCAUAAUAGCACGAGCCACGAAAGUGGCA | 125 | 138 | 157 | 128 | 122
ACGUGCACUAGUGAUGUUAGAAAAUACGAAGGAGCGGGCGAAAGCCCAGGUAGGUCGCGUAAUAGCACGAGCCACGAAAGUGGCA | 254 | 271 | 325 | 447 | 248
ACUGAAAGAUCUGAUACCAGACUUUUUGUAUUUAUUAAAACUAGUGAUGUUAGUUUAUCUGUCCCUUGGCAGCAGUUUCUACAGA [JR_Nu_ExcTheophyB_Sub023] | 128 | 132 | 144 | 134 | 117
ACUUUGGGCCCAGUGAUGUUGGGUCCAGAUACCAGACGUAAAUAAGUCCCUUGGCAGCUGCGUACUAACUAGCACAGGAGGGUCC [Edleaes] | 135 | 143 | 150 | 154 | 141
AGAACUGUCUGAGAUACCAGCUAAGGAGUGAUGUUCCUAAGUCCACGAAAGUGGACUCAUAGCCCUUGGCAGCUCAGACAGUUCA [#24 K4 Theophylline B Same State] | 1150 | 675 | 815 | 565 | 963
AGAACUGUCUGGGAUACCAGCCGAGGAGUGAUGUUCCGGCUCGACGAAACGUCGAGCCACGGCCCUUGGCAGCUCAGACAGUUCA [#21 K4 Theophylline B Same State] | 674 | 332 | 1050 | 1250 | 759
AGACUACCACACUGUCAAUAGACAGUGAACUCGGAUAUGCUGAUAAGCAGAAGGAGUGAUGUUCCCAGGUAGUCAAUAAAAUAAU [FmnAX 13 C32+C66] | 135 | 111 | 144 | 233 | 142
AGAGCGGUCGAAGGAUAUGAGACAACCAACGGUGAGUGAUGUUUGCCGAGUAAACCUCUAGUUGCGUCAGAAGGUCGGCUCAGUC [theeternabot_sameState_KL_FMN_B_25] | 595 | 460 | 633 | 625 | 520
